Measurements as given in patent publication US20150166987, “PROGRAMMABLE AND RECONFIGURABLE MICROCOLUMN AFFINITY CHROMATOGRAPY DEVICE, SYSTEM, AND METHODS OF USE THEREOF” (CORNELL UNIVERSITY, published 2015).

Legend:
GFP = GFP (UniProt P42212 P42212:1-238); assay: pulldown; serial microcolumns, qPCR; 10 mM HEPES-KOH pH 7.6, 125 mM NaCl, 25 mM KCl, 5 mM MgCl2, 0.02% Tween-20; GFP 0.6 ug/uL resin; details: tags: N-terminal hexahistidine; immobilised on Ni-NTA Superflow resin
Protocol: (§1) The order of targets was as follows: Empty, GSH, Ni-NTA, Amylose, His-GFP, GST-hHSF1, His-NELF-E, His-UBLCP1, and is illustrated in FIG. 41 in section I.
(§2) The RNA pools were injected at a rate of 33 μL/min for 30 min with a 10 μL aliquot of each pool set aside and used as a standard for quantitative polymerase chain reaction (qPCR) analysis. All buffers and solutions were degassed prior to use and introduced into the microcolumns via programmable multichannel syringe pumps (Harvard Apparatus) with MEDUSA placed onto a 96-well format liquid waste reservoir. The microcolumns were reconfigured to run in parallel by removing the caps and silicone layers permitting the connectivity of microcolumns, and reassembling the device with the appropriate caps for a parallel configuration, and washed with 3 mL of binding buffer at a rate of 300 μL/min. The RNA/RNA-protein complexes were eluted directly into a 96-well microplate from the individual microcolumns by flowing elution buffer [binding buffer+50 mM ethylenediaminetetraacetic acid (EDTA pH 8.0) for selections with Ni-NTA resin; binding buffer+10 mM glutathione for selections with GSH resin; binding buffer+10 mM maltose for selections with amylose-resin] at a rate of 50 μL/min for 12 min. […]

[1] = molecular target: hHSF1 (heat shock factor 1) (UniProt Q00613 Q00613:1-529); assay: pulldown; serial microcolumns, qPCR; same buffer, 5 mM MgCl2; details: tags: N-terminal GST; immobilised on glutathione-agarose
Protocol: as §1, §2

NELF-E = molecular target: T1, NELF-E (Drosophila, UniProt P92204 P92204:1-280); assay: pulldown; serial microcolumns, qPCR; enrichment falls above 0.6 ug/uL NELF-E, de-enriched at 10 ug/uL; details: tags: N-terminal hexahistidine; immobilised on Ni-NTA Superflow resin
T1 sequence: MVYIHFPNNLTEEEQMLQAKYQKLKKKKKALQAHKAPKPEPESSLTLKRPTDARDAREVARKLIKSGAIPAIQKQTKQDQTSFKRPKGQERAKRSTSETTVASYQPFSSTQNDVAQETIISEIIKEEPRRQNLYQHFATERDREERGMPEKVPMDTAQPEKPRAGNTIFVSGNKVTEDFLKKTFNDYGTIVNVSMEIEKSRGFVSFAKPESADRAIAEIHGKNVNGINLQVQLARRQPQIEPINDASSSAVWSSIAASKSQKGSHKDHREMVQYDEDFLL

Chain of hHSF1 (heat shock factor 1) (Q00613 whole entry, one chain of several): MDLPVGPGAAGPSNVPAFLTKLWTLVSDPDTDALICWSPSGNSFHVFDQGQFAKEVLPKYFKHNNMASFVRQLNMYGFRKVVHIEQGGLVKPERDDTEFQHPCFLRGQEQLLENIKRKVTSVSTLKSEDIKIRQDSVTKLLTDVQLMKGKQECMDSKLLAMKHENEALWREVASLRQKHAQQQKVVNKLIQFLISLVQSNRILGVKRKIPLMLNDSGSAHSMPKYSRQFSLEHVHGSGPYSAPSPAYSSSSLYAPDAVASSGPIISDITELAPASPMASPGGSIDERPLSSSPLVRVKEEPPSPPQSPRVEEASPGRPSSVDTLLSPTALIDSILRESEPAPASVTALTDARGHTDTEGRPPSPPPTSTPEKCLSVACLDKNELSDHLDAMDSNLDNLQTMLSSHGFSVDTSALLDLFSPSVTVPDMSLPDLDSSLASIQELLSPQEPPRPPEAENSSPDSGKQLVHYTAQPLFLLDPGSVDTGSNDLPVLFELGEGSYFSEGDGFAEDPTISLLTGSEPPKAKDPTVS

B1: GFPapt (AP3-1) (ssRNA)
RNA: AGCUUCUGGACUGCGAUGGGAGCACGAAACGUCGUGGCGCAAUUGGGUGGGGAAAGUCCUUAAAAGAGGGCCACCACAGAAGCU
GFP
  binding signal: 750 fold enrichment over N70 library

B2: HSFapt (hHSF2-R5-2) (ssRNA)
RNA: GGGAAUGGAUCCACAUCUACGAAUUCAAUCAAGUCCCCAGACUCAGCAACACUGGACAGCGAUAUGCAGAUAACCAAGACCAAUUCACUCCAGUUCACUGCAGACUUGACGAAGCUU
[1]
  binding signal: 232 fold enrichment over N70 library

B3: NELFapt (Napt1) (ssRNA)
RNA: GGGAAUGGAUCCACAUCUACGAAUUCCCAACGACUGCCGAGCGAGAUUACGCUUGAGCGCCCCACUGAGGAUGCCCACGGGCGAUUGGGGCACGGCUUCACUGCAGACUUGACGAAGCUU
NELF-E
  binding signal: 262 fold enrichment over N70 library
